Experimental findings from patent publication US20200095598A1 (COMMONWEALTH SCIENTIFIC AND INDUSTRIAL RESEARCH ORGANISATION, published 2020) are described below.

The subject of data set [1] is pFAγ::NifD::HA fusion polypeptide.
Data set [2] concerns the target pFAγ::NifD::FLAG fusion polypeptide (Klebsiella pneumoniae (NifD part); Arabidopsis thaliana (pFAγ MTP)). Nature of the data set: cell-based or functional assay.
Data set [3] concerns the molecule itself. Nature of the data set: SDS-PAGE and Western blot of N. benthamiana leaf extracts; self-association (band at about double the molecular weight). (In western blotting, separated proteins are transferred to a membrane and probed.)
Data set [4] has as its target T1, FAγ^51::NifD::HA fusion polypeptide (constructs SN6, SN7, SN8).
T1 chain: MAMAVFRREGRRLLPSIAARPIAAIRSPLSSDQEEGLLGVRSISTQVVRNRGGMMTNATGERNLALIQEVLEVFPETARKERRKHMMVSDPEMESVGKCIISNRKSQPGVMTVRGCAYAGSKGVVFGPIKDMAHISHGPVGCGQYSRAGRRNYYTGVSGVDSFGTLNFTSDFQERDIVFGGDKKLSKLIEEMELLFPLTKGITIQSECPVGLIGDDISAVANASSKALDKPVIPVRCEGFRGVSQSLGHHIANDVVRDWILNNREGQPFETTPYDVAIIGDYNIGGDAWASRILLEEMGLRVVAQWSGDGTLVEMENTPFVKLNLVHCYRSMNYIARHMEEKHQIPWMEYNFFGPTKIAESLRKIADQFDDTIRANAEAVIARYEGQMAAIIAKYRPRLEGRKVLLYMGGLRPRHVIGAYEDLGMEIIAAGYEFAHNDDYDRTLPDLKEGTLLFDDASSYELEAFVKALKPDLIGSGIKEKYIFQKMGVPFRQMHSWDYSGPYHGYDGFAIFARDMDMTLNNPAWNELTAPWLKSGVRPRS

Data set [5] has as its target T2, pFAγ::NifD::HA fusion polypeptide.
T2 chain: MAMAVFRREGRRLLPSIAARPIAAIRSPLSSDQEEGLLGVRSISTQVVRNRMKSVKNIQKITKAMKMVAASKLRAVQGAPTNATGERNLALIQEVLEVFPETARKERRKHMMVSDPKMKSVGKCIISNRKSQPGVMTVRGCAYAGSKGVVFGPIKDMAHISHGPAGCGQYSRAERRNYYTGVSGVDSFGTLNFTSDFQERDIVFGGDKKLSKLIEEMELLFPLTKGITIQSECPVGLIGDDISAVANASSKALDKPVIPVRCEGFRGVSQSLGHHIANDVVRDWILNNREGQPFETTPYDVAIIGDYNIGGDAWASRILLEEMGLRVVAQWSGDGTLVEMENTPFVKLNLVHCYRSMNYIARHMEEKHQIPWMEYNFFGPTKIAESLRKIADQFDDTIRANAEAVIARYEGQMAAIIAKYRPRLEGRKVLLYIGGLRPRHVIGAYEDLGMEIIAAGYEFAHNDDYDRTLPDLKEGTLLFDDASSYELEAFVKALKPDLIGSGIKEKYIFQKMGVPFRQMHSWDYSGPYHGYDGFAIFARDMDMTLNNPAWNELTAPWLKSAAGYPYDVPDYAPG

Data set [6] deals with NifD polypeptide encoded by pMIT2.1 (wild-type nitrogenase gene cluster) in E. coli, P00466.

Read-outs that look alike come from different tables or passages of the source.

Chain of NifD polypeptide encoded by pMIT2.1 (wild-type nitrogenase gene cluster) in E. coli, P00466 (P00466 whole entry, looked up): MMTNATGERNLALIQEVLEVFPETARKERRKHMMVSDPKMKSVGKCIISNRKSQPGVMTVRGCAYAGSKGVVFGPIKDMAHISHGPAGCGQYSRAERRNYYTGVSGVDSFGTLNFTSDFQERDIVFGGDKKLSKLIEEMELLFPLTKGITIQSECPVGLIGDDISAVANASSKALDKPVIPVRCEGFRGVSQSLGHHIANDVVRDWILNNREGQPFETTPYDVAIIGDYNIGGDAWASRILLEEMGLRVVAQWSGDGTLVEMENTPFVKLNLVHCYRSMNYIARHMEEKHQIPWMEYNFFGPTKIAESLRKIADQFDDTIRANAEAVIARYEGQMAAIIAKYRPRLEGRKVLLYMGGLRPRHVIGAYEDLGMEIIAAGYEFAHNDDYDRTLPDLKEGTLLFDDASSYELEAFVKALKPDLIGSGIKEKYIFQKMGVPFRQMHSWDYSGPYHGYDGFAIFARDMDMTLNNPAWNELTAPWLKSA

With pFAγ::NifH::HA fusion polypeptide, in data set [1], the “extent of MTP processing of NifD::HA on co-expression (Western blot)” value is “the extent of processing of the MTP sequence fused to NifD::HA was increased in the presence of the NifK and NifH polypeptides”.
“pFAγ::NifK fusion polypeptide (pRA25), lacking any C-terminal extension (enzyme)”: the level of NifD::FLAG accumulation (band intensity normalised to a background band, Western blot anti-FLAG), co-expression with pRA25 against pRA11 (NifK with C-terminal extension) in data set [2] amounted to 50%.

B1: pFAγ::NifY::HA fusion polypeptide (other)
chain: ISTQVVRNRMKSVKNIQKITKAMKMVAASKLRAVQGAPSDNDTLFWRMLALFQSLPDLQPAQIVDWLAQESGETLTPERLATLTQPQLAASFPSATAVMSPARWSRVMASLQGALPAHLRIVRPAQRTPQLLAAFCSQDGLVINGHFGQGRLFFIYAFDEQGGWLYDLRRYPSAPHQQEANEVRARLIEDCQLLFCQEIGGPAAARPIRHRIHPMKAQPGTTIQAQCEAINTLLAGRLPPWLAKRLNRDNPLEERVFAGGGGGYPYDVPDYAPG
notes: Expressed in N. benthamiana; also called pRA12
Take B1: in data set [3], the binding result was “binds”.

B2: pFAγ::NifK fusion polypeptide (pRA25), lacking any C-terminal extension (protein)
chain: MAMAVFRREGRRLLPSIAARPIAAIRSPLSSDQEEGLLGVRSISTQVVRNRMKSVKNIQKITKAMKMVAASKLRAVQGAPSQTIDKINSCYPLFEQDEYQELFRNKRQLEEAHDAQRVQEVFAWTTTAEYEALNFRREALTVDPAKACQPLGAVLCSLGFANTLPYVHGSQGCVAYFRTYFNRHFKEPIACVSDSMTEDAAVFGGNNNMNLGLQNASALYKPEIIAVSTTCMAEVIGDDLQAFIANAKKDGFVDSSIAVPHAHTPSFIGSHVTGWDNMFEGFAKTFTADYQGQPGKLPKLNLVTGFETYLGNFRVLKRMMEQMAVPCSLLSDPSEVLDTPADGHYRMYSGGTTQQEMKEAPDAIDTLLLQPWQLLKSKKVVQEMWNQPATEVAIPLGLAATDELLMTVSQLSGKPIADALTLERGRLVDMMLDSHTWLHGKKFGLYGDPDFVMGLTRFLLELGCEPTVILSHNANKRWQKAMNKMLDASPYGRDSEVFINCDLWHFRSLMFTRQPDFMIGNSYGKFIQRDTLAKGKAFEVPLIRLGFPLFDRHHLHRQTTWGYEGAMNIVTTLVNAVLEKLDSDTSQLGKTDYSFDLVR
B2: in data set [4], the “NifD::HA abundance and ratio of processed to unprocessed NifD on co-infiltration (SDS-PAGE, Western blot anti-HA)” value is “the addition of pRA25 in each case greatly enhanced NifD abundance, particularly for the combination of SN7 and pRA25. Most importantly, the ratio of processed to unprocessed NifD was enhanced by the addition of pRA25”; the “amount of the approximately 48 kDa NifD::HA degradation product on co-expression (Western blot anti-HA)” value is on record as “the amount of this product was also enhanced by co-expression of pRA25 (NifK)”. The “extent of MTP processing of NifD::HA on co-expression (Western blot)” value in data set [5] is “the extent of processing of the MTP sequence fused to NifD::HA was increased in the presence of the NifK and NifH polypeptides”.

B3: pFAγ::NifB::HA fusion polypeptide (enzyme)
chain: ISTQVVRNRMKSVKNIQKITKAMKMVAASKLRAVQGAPTSCSSFSGGKACRPADDSALTPLVADKAAAHPCYSRHGHHRFARMHLPVAPACNLQCNYCNRKFDCSNESRPGVSSTLLTPEQAVVKVRQVAQAIPQLSVVGIAGPGDPLANIARTFRTLELIREQLPDLKLCLSTNGLVLPDAVDRLLDVGVDHVTVTINTLDAEIAAQIYAWLWLDGERYSGREAGEILIARQLEGVRRLTAKGVLVKINSVLIPGINDSGMAGVSRALRASGAFIHNIMPLIARPEHGTVFGLNGQPEPDAETLAATRSRCGEVMPQMTHCHQCRADAIGMLGEDRSQQFTQLPAPESLPAWLPILHQRAQLHASIATRGESEADDACLVAVASSRGDVIDCHFGHADRFYIYSLSAAGMVLVNERFTPKYCQGRDDCEPQDNAARFAAILELLADVKAVFCVRIGHTPWQQLEQEGIEPCVDGAWRPVSEVLPAWWQQRRGSWPAALPHKGVAAGGGGGYPYDVPDYAPG
notes: Expressed in N. benthamiana; also called pRA03
Turning to B3, the binding result in data set [3] is recorded as “binds”.

B4: pFAγ::NifS::HA fusion polypeptide (enzyme)
chain: ISTQVVRNRMKSVKNIQKITKAMKMVAASKLRAVQGAPKQVYLDNNATTRLDPMVLEAMMPFLTDFYGNPSSIHDFGIPAQAALERAHQQAAALLGAEYPSEIIFTSCATEATATAIASAIALLPERREIITSVVEHPATLAACEHMEREGYRIHRIAVDGEGALDMAQFRAALSPRVALVSVMWANNETGVLFPIGEMAELAHEQGALFHCDAVQVVGKIPIAVGQTRIDMLSCSAHKFHGPKGVGCLYLRRGTRFRPLLRGGHQEYGRRAGTENICGIVGMGAACELANIHLPGMTHIGQLRNRLEHRLLASVPSVMVMGGGQPAVPGTVNLAFEFIEGEAILLLLNQAGIAASSGSACTSGSLEPSHVMRAMNIPYTAAHGTIRFSLSRYTREKEIDYVVATLPPIIDRLRALSPYWQNGKPRPADAVFTPVYGAGGGGGYPYDVPDYAPG
notes: Expressed in N. benthamiana; also called pRA16
On to B4, for which the binding result in data set [3] was “binds”.

B5: modified NifK polypeptide having a 9 amino acid C-terminal extension (YPYDVPDYA), encoded by modified pMIT2.1 (protein)
chain: MSQTIDKINSCYPLFEQDEYQELFRNKRQLEEAHDAQRVQEVFAWTTTAEYEALNFRREALTVDPAKACQPLGAVLCSLGFANTLPYVHGSQGCVAYFRTYFNRHFKEPIACVSDSMTEDAAVFGGNNNMNLGLQNASALYKPEIIAVSTTCMAEVIGDDLQAFIANAKKDGFVDSSIAVPHAHTPSFIGSHVTGWDNMFEGFAKTFTADYQGQPGKLPKLNLVTGFETYLGNFRVLKRMMEQMAVPCSLLSDPSEVLDTPADGHYRMYSGGTTQQEMKEAPDAIDTLLLQPWQLLKSKKVVQEMWNQPATEVAIPLGLAATDELLMTVSQLSGKPIADALTLERGRLVDMMLDSHTWLHGKKFGLYGDPDFVMGLTRFLLELGCEPTVILSHNANKRWQKAMNKMLDASPYGRDSEVFINCDLWHFRSLMFTRQPDFMIGNSYGKFIQRDTLAKGKAFEVPLIRLGFPLFDRHHLHRQTTWGYEGAMNIVTTLVNAVLEKLDSDTSQLGKTDYSFDLVRYPYDVPDYA
For B5, the “ethylene production in acetylene reduction assay (E. coli DH5α, modified pMIT2.1 + pN249)” value in data set [6] is “the 9-amino acid C-terminal extension added to NifK completely abolished ethylene production”.
